For 94 variants, protein stability index results are on record in the supplement of paper PMC10567573.

First the molecules themselves.
B1: ZNF207 (parent)
chain: CHICHKKLYTGPGLAIHCMQVHKE
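Note: lentivirally expressed fusions sorted by FACS into six bins by GFP to DsRed ratio, PSI derived from sequencing read proportions per bin multiplied by bin number.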

Variants of B1 are the subject of this data set. Description: protein stability index of a GFP-peptide fusion (GPS, HEK-293T) (PSI 1-6); higher = more stable. Conditions: c terminus: a fixed tail appended.
For the variant CHICHKKLYTGPGLAIHCRQVHKE [M19R], the protein stability index turned out to be 3.41. Regarding CHICHKKLYTGPGLAIHCWQVHKE [M19W], the protein stability index worked out at 2.48. In the case of CHICHKKLYTGPGLAIHCAQVHKE [M19A], the protein stability index stood at 3.57. CHICHKKLYTGPGLAIHCKQVHKE [M19K]: the protein stability index came out at 3.93.

Take CHICHKKLYTGPGLAIHCQQVHKE [M19Q]: the protein stability index was found to be 3.81. For CHICHKKLYTGPGLAIHCHQVHKE [M19H], the protein stability index turned out to be 4.12. Turning to CHICHKKLYTGPGLAIHCPQVHKE [M19P], the protein stability index was 3.3. For CHICHKKLYTGPGLAIHCSQVHKE [M19S], the protein stability index stood at 4.03.

As for CHICHKKLYTGPGLAIHCIQVHKE [M19I], the protein stability index came out at 3.47. With CHICHKKLYTGPGLAIHCGQVHKE [M19G], the protein stability index is 3.41.

On to CHICHKKLYTGPGLAIHCTQVHKE [M19T], for which the protein stability index was found to be 3.73.

For CHICHKKLYTGPGLAIHCNQVHKE [M19N], the protein stability index was determined as 3.9. Regarding CHICHKKLYTGPGLAIHCYQVHKE [M19Y], the protein stability index was 2.94. With CHICHKKLYTGPGLAIHCLQVHKE [M19L], the protein stability index is 2.52.

As to CHICHKKLYTGPGLAIHCCQVHKE [M19C], the protein stability index amounted to 4.56.

For CHICHKKLYTGPGLAIHCFQVHKE [M19F], the protein stability index was found to be 3.75. The figure for CHICHKKLYTGPGLAIHCDQVHKE [M19D] is 3.36. For CHICHKKLYTGPGLAIHCEQVHKE [M19E] the value was 4.47; for CHICHKKLYTGPGLAIHCVQVHKE [M19V], 2.94; for CHICHKKLYTGPGLAIHCMQVNKE [H22N], 2.35. For CHICHKKLYTGPGLAIHCMQVFKE [H22F] the value was 1.92; for CHICHKKLYTGPGLAIHCMQVMKE [H22M], 2.78; for CHICHKKLYTGPGLAIHCMQVDKE [H22D], 3.04.

Consider CHICHKKLYTGPGLAIHCMQVKKE [H22K], for which the protein stability index amounted to 2.41.

Consider CHICHKKLYTGPGLAIHCMQVLKE [H22L], for which the protein stability index was 2.11. The figure for CHICHKKLYTGPGLAIHCMQVYKE [H22Y] is 1.45; for CHICHKKLYTGPGLAIHCMQVVKE [H22V] it is 2.03; for CHICHKKLYTGPGLAIHCMQVRKE [H22R] it is 2.11. As for CHICHKKLYTGPGLAIHCMQVCKE [H22C], the protein stability index was 2.64. For CHICHKKLYTGPGLAIHCMQVTKE [H22T], the protein stability index was 2.48. For CHICHKKLYTGPGLAIHCMQVAKE [H22A] the value was 2.65. For CHICHKKLYTGPGLAIHCMQVEKE [H22E] the value was 2.67. The figure for CHICHKKLYTGPGLAIHCMQVPKE [H22P] is 3.15; for CHICHKKLYTGPGLAIHCMQVGKE [H22G] it is 1.88.

As for CHICHKKLYTGPGLAIHCMQVIKE [H22I], the protein stability index was found to be 2.41. For CHICHKKLYTGPGLAIHCMQVQKE [H22Q] the value was 1.8; for CHICHKKLYTGPGLAIHCMQVSKE [H22S], 1.85. In the case of CHICHKKLYTGPGLAIHCMQVWKE [H22W], the protein stability index came out at 1.68. The figure for CHICHKKLYTGPGLAIHCMQCHKE [V21C] is 4.09; for CHICHKKLYTGPGLAIHCMQAHKE [V21A] it is 3.84; for CHICHKKLYTGPGLAIHCMQMHKE [V21M] it is 3.72. Consider CHICHKKLYTGPGLAIHCMQGHKE [V21G], for which the protein stability index was 3.96. As to CHICHKKLYTGPGLAIHCMQYHKE [V21Y], the protein stability index was 3.93. For CHICHKKLYTGPGLAIHCMQPHKE [V21P], the protein stability index stood at 3.21. With CHICHKKLYTGPGLAIHCMQSHKE [V21S], the protein stability index worked out at 3.71. The figure for CHICHKKLYTGPGLAIHCMQDHKE [V21D] is 3.5; for CHICHKKLYTGPGLAIHCMQHHKE [V21H] it is 3.44. CHICHKKLYTGPGLAIHCMQRHKE [V21R]: the protein stability index came out at 2.84. For the variant CHICHKKLYTGPGLAIHCMQNHKE [V21N], the protein stability index was 3.48. As for CHICHKKLYTGPGLAIHCMQEHKE [V21E], the protein stability index came out at 3.6. For CHICHKKLYTGPGLAIHCMQKHKE [V21K] the value was 3.27; for CHICHKKLYTGPGLAIHCMQTHKE [V21T], 3.7. The figure for CHICHKKLYTGPGLAIHCMQQHKE [V21Q] is 2.89; for CHICHKKLYTGPGLAIHCMQFHKE [V21F] it is 3.35; for CHICHKKLYTGPGLAIHCMQLHKE [V21L] it is 3. For CHICHKKLYTGPGLAIHCMQIHKE [V21I] the value was 2.49. CHICHKKLYTGPGLAIHCMQWHKE [V21W]: the protein stability index came to 2.89.

On to CHICHKKLYTGPGLAIHCMVVHKE [Q20V], for which the protein stability index was 3.88. The figure for CHICHKKLYTGPGLAIHCMGVHKE [Q20G] is 3.13; for CHICHKKLYTGPGLAIHCMEVHKE [Q20E] it is 3.95. Regarding CHICHKKLYTGPGLAIHCMKVHKE [Q20K], the protein stability index stood at 2.75. For CHICHKKLYTGPGLAIHCMHVHKE [Q20H] the value was 4.04; for CHICHKKLYTGPGLAIHCMMVHKE [Q20M], 3.65. For CHICHKKLYTGPGLAIHCMYVHKE [Q20Y] the value was 3.36; for CHICHKKLYTGPGLAIHCMDVHKE [Q20D], 3.28. The figure for CHICHKKLYTGPGLAIHCMWVHKE [Q20W] is 2.92; for CHICHKKLYTGPGLAIHCMFVHKE [Q20F] it is 3.4; for CHICHKKLYTGPGLAIHCMIVHKE [Q20I] it is 3.61. Consider CHICHKKLYTGPGLAIHCMNVHKE [Q20N], for which the protein stability index is 3.85.

In the case of CHICHKKLYTGPGLAIHCMPVHKE [Q20P], the protein stability index amounted to 2.86. Consider CHICHKKLYTGPGLAIHCMLVHKE [Q20L], for which the protein stability index stood at 4. The figure for CHICHKKLYTGPGLAIHCMCVHKE [Q20C] is 4.79. The figure for CHICHKKLYTGPGLAIHCMTVHKE [Q20T] is 3.56; for CHICHKKLYTGPGLAIHCMAVHKE [Q20A] it is 3.4; for CHICHKKLYTGPGLAIHCMRVHKE [Q20R] it is 2.62. The figure for CHICHKKLYTGPGLAIHCMSVHKE [Q20S] is 1.93; for CHICHKKLYTGPGLAIHCMQVHKW [E24W] it is 2.49; for CHICHKKLYTGPGLAIHCMQVHKV [E24V] it is 3.65. Turning to CHICHKKLYTGPGLAIHCMQVHKR [E24R], the protein stability index was determined as 2.34. In the case of CHICHKKLYTGPGLAIHCMQVHKL [E24L], the protein stability index was 2.6. The figure for CHICHKKLYTGPGLAIHCMQVHKN [E24N] is 2.44.

Take CHICHKKLYTGPGLAIHCMQVHKG [E24G]: the protein stability index amounted to 2.55. For CHICHKKLYTGPGLAIHCMQVHKS [E24S], the protein stability index was 3.17. CHICHKKLYTGPGLAIHCMQVHKK [E24K]: the protein stability index was found to be 2.65. The figure for CHICHKKLYTGPGLAIHCMQVHKC [E24C] is 3.29; for CHICHKKLYTGPGLAIHCMQVHKF [E24F] it is 2.53. The figure for CHICHKKLYTGPGLAIHCMQVHKQ [E24Q] is 2.85. As for CHICHKKLYTGPGLAIHCMQVHKD [E24D], the protein stability index amounted to 2.84. The figure for CHICHKKLYTGPGLAIHCMQVHKP [E24P] is 2.63. Turning to CHICHKKLYTGPGLAIHCMQVHKT [E24T], the protein stability index was 2.96. For CHICHKKLYTGPGLAIHCMQVHKI [E24I] the value was 3.47. For CHICHKKLYTGPGLAIHCMQVHKY [E24Y], the protein stability index was found to be 2.74.

For the variant CHICHKKLYTGPGLAIHCMQVHKA [E24A], the protein stability index came out at 2.66. Turning to CHICHKKLYTGPGLAIHCMQVHKH [E24H], the protein stability index was determined as 2.18.
